According to FireProtDB (doi:10.1093/protein/15.6.455):

B1: Cytochrome c-552 wild type, P15452 (protein)
chain: MKKFLLVAVVGLAGITFANEQLAKQKGCMACHDLKAKKVGPAYADVAKKYAGRKDAVDYLAGKIKKGGSGVWGSVPMPPQNVTDAEAKQLAQWILSIK
B2: Cytochrome c-551 wild type, P00099 (protein)
chain: MKPYALLSLLATGTLLAQGAWAEDPEVLFKNKGCVACHAIDTKMVGPAYKDVAAKFAGQAGAEAELAQRIKNGSQGVWGPIPMPPNAVSDDEAQTLAKWVLSQK

Conditions: pH 3.6, Thermal, DSC, sodium acetate 50 mM, reversible: yes, whole UniProt chain shown; for heat capacity change of unfolding / unfolding enthalpy (calorimetric): 62.6 °C
[1] = Hydrogenobacter thermophilus (strain DSM 6534 / IAM 12695 / TK-6)
[2] = Pseudomonas aeruginosa (strain ATCC 15692 / DSM 22644 / CIP 104116 / JCM 14847 / LMG 12228 / 1C / PRS 101 / PAO1)

Protein | heat capacity change of unfolding [1] | unfolding enthalpy (calorimetric) [1] | Tm [1] | heat capacity change of unfolding [2] | unfolding enthalpy (calorimetric) [2] | Tm [2]
B1 | 0.54 kcal/mol/K | 69.5 kcal/mol | 94 °C | – | – | –
B2 | – | – | – | 0.72 kcal/mol/K | 60.8 kcal/mol | 62.6 °C
